# Source: patent publication US20060185026
# Test system: tau (substrate in the in vitro phosphorylation assay of FIG. 1A)
substance,measurement,value
PKCζ (kinase in the in vitro phosphorylation assay of FIG. 1A),incorporation of radioactive phosphate into tau (autoradiogram),when tau is incubated with PKCζ phosphate is incorporated into tau
